From patent US20040192610A1

Target: rat neuronal nicotinic acetylcholine receptor, α7 subtype (rat) (UniProt Q05941)
Experiment: cell-based or functional assay

UniProt Q05941, sequence (Q05941 23-502): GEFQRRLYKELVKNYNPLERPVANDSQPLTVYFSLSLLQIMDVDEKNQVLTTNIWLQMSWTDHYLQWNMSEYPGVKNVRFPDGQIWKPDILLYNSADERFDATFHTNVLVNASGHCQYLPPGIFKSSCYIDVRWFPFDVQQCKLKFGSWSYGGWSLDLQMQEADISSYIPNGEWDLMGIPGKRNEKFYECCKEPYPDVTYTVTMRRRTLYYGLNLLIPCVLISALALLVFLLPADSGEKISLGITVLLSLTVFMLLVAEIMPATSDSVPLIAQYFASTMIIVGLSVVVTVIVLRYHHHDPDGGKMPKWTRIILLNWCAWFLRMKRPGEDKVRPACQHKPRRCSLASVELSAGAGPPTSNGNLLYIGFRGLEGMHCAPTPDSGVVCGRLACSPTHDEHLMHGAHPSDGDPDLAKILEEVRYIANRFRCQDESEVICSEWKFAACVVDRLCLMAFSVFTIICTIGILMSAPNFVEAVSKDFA

Work on α-conotoxin peptide PnIA yielded an IC50 of antagonistic activity (oocyte electrophysiology) of 229 nmol.
